Reference: patent US20240279318A1 (NANJING LEGEND BIOTECH, published 2024)
Positions count from the first letter of the chain named. One block for each binder: values may come before it.

Legend:
[1] = target: T1, AFP158/HLA-A*02:01 complex (human); assay: SPR, fold vs AS170036 VL1VH1;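 also: crude scFv muteins immobilised on a sensor chip, peptide–MHC complex passed over at several concentrations, binding then buffer-driven dissociation, KD estimated from on- and off-rates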
T1 construct: flowed as analyte in SPR

[2] = target: T1, AFP158/HLA-A*02:01 complex; assay: SPR, crude scFv captured, pMHC analyte;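 also: complex injected at several concentrations over the chip, association phase then running buffer for dissociation, KD derived from on- and off-rates computed from both curves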
[3] = target: T2, AFP158/HLA-A*02:01 complex (human); assay: SPR, KD ratio to AS170036 VL1VH1;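 also: crude scFv captured on a sensor chip, peptide–HLA complex passed over at several concentrations, association then buffer dissociation, KD derived from on- and off-rates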
T2 construct: flowed over the chip in SPR; also called AFP158 pro
Procedure: (§1) The experiment was carried out as follows. The crude scFv protein were captured onto the sensorchip. Different concentrations (320, 160, 40 nM) of AFP158/HLA-A*02:01 complex flowed over the sensorchip surface, and were allowed to bind the antibody fragment for 100 s followed by injection of the running buffer to allow dissociation of the complex. On-rate (kd) and off-rate (kd) were calculated based on association and dissociation curve, and were used to estimate the equilibrium dissociation constant (KD).

[4] = target: T2, AFP158/HLA-A*02:01 complex; assay: SPR, scFv captured, pMHC in flow;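 also: complex injected at several concentrations over crude scFv, association then running-buffer dissociation, KD estimated from kinetic on- and off-rate constants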
Procedure: as §1

Affinity increase [1]: 41.7 fold
Kd [2]: 5.4 nM
koff [2]: 0.0015 s⁻¹
kon [2]: 270000 M⁻¹ s⁻¹
B1: AS170036 VL1VH1-56N98F108A (scFv)
scFv: QSALTQPRSVSGSPGQSVTISCAGTSSDVGSENYVSWYQQHPGKAPKLMIYQVNKRASGVPDRFSGSKSGNTASLTISGLQAEDEADYYCASYRSSDFNIVFGGGTKLTVLGGGGSGGGGSGGGGSEVQLVESGGGLVQPGGSLRLSCAASGFTFSSYAMSWVRQAPGKGLEWVSTINSGTNSPYYADSVKGRFTISRDNSKNTLYLQMNSLRAEDTAVYYCAKNFFDGSWFLAPPAMDYWGQGTLVTVSSHHHHHH
notes: also called 49-AS170036 VL1VH1-56N98F108A

Affinity increase [3]: 0.8 fold
Kd [4]: 300 nM
B2: HP110S (scFv)
scFv: B1 scFv with F98H, N182G, A234G, P236S
notes: AS170036 VL1VH1 scFv mutein

Affinity increase [3]: 1.1 fold
Kd [4]: 220 nM
B3: HS57T (scFv)
scFv: B1 scFv with F98H, N182G, S183T, A234G
notes: AS170036 VL1VH1 scFv mutein

Affinity increase [3]: 0.7 fold
Kd [4]: 370 nM
B4: HG108V (scFv)
scFv: B1 scFv with F98H, N182G, A234V
notes: AS170036 VL1VH1 scFv mutein

Affinity increase [1]: 212 fold
Kd [2]: 1.1 nM
koff [2]: 0.00025 s⁻¹
kon [2]: 240000 M⁻¹ s⁻¹
B5: AS170036 VL1VH1-56Y98I108A (scFv)
scFv: B1 scFv with F98I, N182Y
notes: also called 43-AS170036 VL1VH1-56Y98I108A

Affinity increase [3]: 1.2 fold
Kd [4]: 200 nM
B6: HS57Y (scFv)
scFv: B1 scFv with F98H, N182G, S183Y, A234G
notes: AS170036 VL1VH1 scFv mutein

Affinity increase [3]: 1.3 fold
Kd [4]: 210 nM
B7: HP110A (scFv)
scFv: B1 scFv with F98H, N182G, A234G, P236A
notes: AS170036 VL1VH1 scFv mutein

Affinity increase [3]: 4.4 fold
Kd [4]: 56 nM
B8: HS57K (scFv)
scFv: B1 scFv with F98H, N182G, S183K, A234G
notes: AS170036 VL1VH1 scFv mutein; also called AS170036 VL1VH1-VHS57K

Affinity increase [3]: 0.5 fold
Kd [4]: 500 nM
B9: HP58Q (scFv)
scFv: B1 scFv with F98H, N182G, P184Q, A234G
notes: AS170036 VL1VH1 scFv mutein

Affinity increase [3]: 1.3 fold
Kd [4]: 180 nM
B10: HP110T (scFv)
scFv: B1 scFv with F98H, N182G, A234G, P236T
notes: AS170036 VL1VH1 scFv mutein

Affinity increase [3]: 1.1 fold
Kd [4]: 240 nM
B11: HL107I (scFv)
scFv: B1 scFv with F98H, N182G, L233I, A234G
notes: AS170036 VL1VH1 scFv mutein

Affinity increase [1]: 62 fold
Kd [2]: 3.6 nM
koff [2]: 0.00093 s⁻¹
kon [2]: 260000 M⁻¹ s⁻¹
B12: AS170036 VL1VH1-56N98I108A (scFv)
scFv: B1 scFv with F98I
notes: also called 52-AS170036 VL1VH1-56N98I108A

Affinity increase [3]: 0.7 fold
Kd [4]: 370 nM
B13: HL107M (scFv)
scFv: B1 scFv with F98H, N182G, L233M, A234G
notes: AS170036 VL1VH1 scFv mutein

Affinity increase [1]: 152 fold
Kd [2]: 1.5 nM
koff [2]: 0.00038 s⁻¹
kon [2]: 260000 M⁻¹ s⁻¹
B14: AS170036 VL1VH1-56Y98I108D (scFv)
scFv: B1 scFv with F98I, N182Y, A234D
notes: also called 44-AS170036 VL1VH1-56Y98I108D

Affinity increase [3]: 2.8 fold
Kd [4]: 96 nM
B15: HG108S (scFv)
scFv: B1 scFv with F98H, N182G, A234S
notes: AS170036 VL1VH1 scFv mutein; also called AS170036 VL1VH1-VHG108S

Affinity increase [3]: 2.4 fold
Kd [4]: 100 nM
B16: HS57Q (scFv)
scFv: B1 scFv with F98H, N182G, S183Q, A234G
notes: AS170036 VL1VH1 scFv mutein; also called AS170036 VL1VH1-VHS57Q

Affinity increase [1]: 36.4 fold
Kd [2]: 6.2 nM
koff [2]: 0.0019 s⁻¹
kon [2]: 310000 M⁻¹ s⁻¹
B17: AS170036 VL1VH1-56N98F108D (scFv)
scFv: B1 scFv with A234D
notes: also called 50-AS170036 VL1VH1-56N98F108D

Affinity increase [3]: 1.5 fold
Kd [4]: 170 nM
B18: HS57N (scFv)
scFv: B1 scFv with F98H, N182G, S183N, A234G
notes: AS170036 VL1VH1 scFv mutein

Affinity increase [3]: 0.5 fold
Kd [4]: 600 nM
B19: HP58E (scFv)
scFv: B1 scFv with F98H, N182G, P184E, A234G
notes: AS170036 VL1VH1 scFv mutein

Affinity increase [3]: 0.6 fold
Kd [4]: 380 nM
B20: HS57W (scFv)
scFv: B1 scFv with F98H, N182G, S183W, A234G
notes: AS170036 VL1VH1 scFv mutein

Affinity increase [3]: 1.4 fold
Kd [4]: 180 nM
B21: HS57F (scFv)
scFv: B1 scFv with F98H, N182G, S183F, A234G
notes: AS170036 VL1VH1 scFv mutein

Affinity increase [1]: 183 fold
Kd [2]: 1.2 nM
koff [2]: 0.00028 s⁻¹
kon [2]: 230000 M⁻¹ s⁻¹
B22: AS170036 VL1VH1-56Y98Q108A (scFv)
scFv: B1 scFv with F98Q, N182Y
notes: also called 46-AS170036 VL1VH1-56Y98Q108A

Affinity increase [1]: 22.3 fold
Kd [2]: 10 nM
koff [2]: 0.0019 s⁻¹
kon [2]: 190000 M⁻¹ s⁻¹
B23: AS170036 VL1VH1-56N98I108S (scFv)
scFv: B1 scFv with F98I, A234S
notes: also called 54-AS170036 VL1VH1-56N98I108S

Affinity increase [1]: 56.3 fold
Kd [2]: 4 nM
koff [2]: 0.00074 s⁻¹
kon [2]: 190000 M⁻¹ s⁻¹
B24: AS170036 VL1VH1-56Y98F108S (scFv)
scFv: B1 scFv with N182Y, A234S
notes: also called 42-AS170036 VL1VH1-56Y98F108S

Affinity increase [3]: 1.2 fold
Kd [4]: 210 nM
B25: HS57A (scFv)
scFv: B1 scFv with F98H, N182G, S183A, A234G
notes: AS170036 VL1VH1 scFv mutein

Affinity increase [1]: 81.5 fold
Kd [2]: 2.8 nM
koff [2]: 0.0005 s⁻¹
kon [2]: 180000 M⁻¹ s⁻¹
B26: AS170036 VL1VH1-56Y98I108S (scFv)
scFv: B1 scFv with F98I, N182Y, A234S
notes: also called 45-AS170036 VL1VH1-56Y98I108S

Affinity increase [3]: 0.5 fold
Kd [4]: 540 nM
B27: HP110D (scFv)
scFv: B1 scFv with F98H, N182G, A234G, P236D
notes: AS170036 VL1VH1 scFv mutein

Affinity increase [1]: 54.1 fold
Kd [2]: 4.2 nM
koff [2]: 0.001 s⁻¹
kon [2]: 240000 M⁻¹ s⁻¹
B28: AS170036 VL1VH1-56N98Q108A (scFv)
scFv: B1 scFv with F98Q
notes: also called 55-AS170036 VL1VH1-56N98Q108A

Affinity increase [3]: 0.5 fold
Kd [4]: 530 nM
B29: HG108T (scFv)
scFv: B1 scFv with F98H, N182G, A234T
notes: AS170036 VL1VH1 scFv mutein

Affinity increase [3]: 2.7 fold
Kd [4]: 90 nM
B30: HS57M (scFv)
scFv: B1 scFv with F98H, N182G, S183M, A234G
notes: AS170036 VL1VH1 scFv mutein; also called AS170036 VL1VH1-VHS57M

Affinity increase [1]: 17.6 fold
Kd [2]: 13 nM
koff [2]: 0.0028 s⁻¹
kon [2]: 210000 M⁻¹ s⁻¹
B31: AS170036 VL1VH1-56N98F108S (scFv)
scFv: B1 scFv with A234S
notes: also called 51-AS170036 VL1VH1-56N98F108S

Affinity increase [1]: 110 fold
Kd [2]: 2 nM
koff [2]: 0.00054 s⁻¹
kon [2]: 270000 M⁻¹ s⁻¹
B32: AS170036 VL1VH1-56Y98F108D (scFv)
scFv: B1 scFv with N182Y, A234D
notes: also called 41-AS170036 VL1VH1-56Y98F108D

Affinity increase [3]: 0.7 fold
Kd [4]: 380 nM
B33: HP58A (scFv)
scFv: B1 scFv with F98H, N182G, P184A, A234G
notes: AS170036 VL1VH1 scFv mutein

Affinity increase [3]: 1.2 fold
Kd [4]: 200 nM
B34: HS57D (scFv)
scFv: B1 scFv with F98H, N182G, S183D, A234G
notes: AS170036 VL1VH1 scFv mutein

Affinity increase [3]: 0.6 fold
Kd [4]: 400 nM
B35: HP110V (scFv)
scFv: B1 scFv with F98H, N182G, A234G, P236V
notes: AS170036 VL1VH1 scFv mutein

Affinity increase [3]: 1.8 fold
Kd [4]: 150 nM
B36: HP110E (scFv)
scFv: B1 scFv with F98H, N182G, A234G, P236E
notes: AS170036 VL1VH1 scFv mutein

Affinity increase [3]: 2.8 fold
Kd [4]: 88 nM
B37: HS57R (scFv)
scFv: B1 scFv with F98H, N182G, S183R, A234G
notes: AS170036 VL1VH1 scFv mutein; also called AS170036 VL1VH1-VHS57R

Affinity increase [3]: 0.9 fold
Kd [4]: 300 nM
B38: HP110Q (scFv)
scFv: B1 scFv with F98H, N182G, A234G, P236Q
notes: AS170036 VL1VH1 scFv mutein

Affinity increase [3]: 6.9 fold
Kd [4]: 35 nM
B39: HS57H (scFv)
scFv: B1 scFv with F98H, N182G, S183H, A234G
notes: AS170036 VL1VH1 scFv mutein; also called AS170036 VL1VH1-VHS57H

Affinity increase [3]: 1 fold
Kd [4]: 260 nM
B40: HP110G (scFv)
scFv: B1 scFv with F98H, N182G, A234G, P236G
notes: AS170036 VL1VH1 scFv mutein

Affinity increase [1]: 20.8 fold
Kd [2]: 11 nM
koff [2]: 0.0019 s⁻¹
kon [2]: 180000 M⁻¹ s⁻¹
B41: AS170036 VL1VH1-56N98Q108S (scFv)
scFv: B1 scFv with F98Q, A234S
notes: also called 57-AS170036 VL1VH1-56N98Q108S

Affinity increase [3]: 0.9 fold
Kd [4]: 320 nM
B42: HP58G (scFv)
scFv: B1 scFv with F98H, N182G, P184G, A234G
notes: AS170036 VL1VH1 scFv mutein

Affinity increase [1]: 44.4 fold
Kd [2]: 5.1 nM
koff [2]: 0.0014 s⁻¹
kon [2]: 280000 M⁻¹ s⁻¹
B43: AS170036 VL1VH1-56N98I108D (scFv)
scFv: B1 scFv with F98I, A234D
notes: also called 53-AS170036 VL1VH1-56N98I108D

Affinity increase [1]: 39.1 fold
Kd [2]: 5.8 nM
koff [2]: 0.0015 s⁻¹
kon [2]: 260000 M⁻¹ s⁻¹
B44: AS170036 VL1VH1-56N98Q108D (scFv)
scFv: B1 scFv with F98Q, A234D
notes: also called 56-AS170036 VL1VH1-56N98Q108D

Affinity increase [3]: 0.5 fold
Kd [4]: 530 nM
B45: HL107N (scFv)
scFv: B1 scFv with F98H, N182G, L233N, A234G
notes: AS170036 VL1VH1 scFv mutein

Affinity increase [1]: 142 fold
Kd [2]: 1.6 nM
koff [2]: 0.00038 s⁻¹
kon [2]: 240000 M⁻¹ s⁻¹
B46: AS170036 VL1VH1-56Y98F108A (scFv)
scFv: B1 scFv with N182Y
notes: also called 40-AS170036 VL1VH1-56Y98F108A
